Results reported in PMC2756588.

T1: Hse1, P38753
T1 sequence (P38753 208-285, looked up): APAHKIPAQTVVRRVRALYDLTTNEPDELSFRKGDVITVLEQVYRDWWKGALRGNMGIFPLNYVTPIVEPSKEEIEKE

T2: Sla1-2, P32790
T2 sequence (P32790 60-140, looked up): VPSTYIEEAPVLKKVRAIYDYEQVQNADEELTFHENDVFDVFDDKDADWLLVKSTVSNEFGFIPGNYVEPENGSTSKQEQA

T3: Boi2, P39969
T3 sequence (P39969 32-116, looked up): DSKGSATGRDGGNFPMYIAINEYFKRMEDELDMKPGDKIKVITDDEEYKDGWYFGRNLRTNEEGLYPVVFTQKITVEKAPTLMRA

T4: Cdc25, P04821
T4 sequence (P04821 50-136, looked up): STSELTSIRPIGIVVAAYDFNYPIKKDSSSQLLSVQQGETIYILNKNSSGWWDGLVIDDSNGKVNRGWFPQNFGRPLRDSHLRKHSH

T5: Sla1-3, P32790
T5 sequence (P32790 344-424, looked up): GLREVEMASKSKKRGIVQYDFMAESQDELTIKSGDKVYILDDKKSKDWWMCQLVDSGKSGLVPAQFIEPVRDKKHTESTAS

T6: Lsb1, P53281
T6 sequence (P53281 45-122, looked up): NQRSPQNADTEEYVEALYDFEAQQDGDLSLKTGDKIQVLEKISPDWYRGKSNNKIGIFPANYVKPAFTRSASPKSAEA

T7: Pex13, P80667
T7 sequence (P80667 295-386, looked up): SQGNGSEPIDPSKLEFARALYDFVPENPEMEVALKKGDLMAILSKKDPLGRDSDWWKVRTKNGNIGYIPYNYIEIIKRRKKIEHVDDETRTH

T8: Fus1, P11710
T8 sequence (P11710 432-512, looked up): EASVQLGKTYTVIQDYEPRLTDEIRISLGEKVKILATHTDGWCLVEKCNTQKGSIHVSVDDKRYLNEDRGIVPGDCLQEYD

T9: Nbp2, Q12163
T9 sequence (Q12163 103-180, looked up): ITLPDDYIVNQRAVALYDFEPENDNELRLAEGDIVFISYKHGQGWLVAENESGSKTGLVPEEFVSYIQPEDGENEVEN

T10: Pin3, Q06449
T10 sequence (Q06449 53-122, looked up): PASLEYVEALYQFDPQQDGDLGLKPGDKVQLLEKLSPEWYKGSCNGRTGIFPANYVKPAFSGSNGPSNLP

T11: Abp1, P15891
T11 sequence (P15891 535-592, looked up): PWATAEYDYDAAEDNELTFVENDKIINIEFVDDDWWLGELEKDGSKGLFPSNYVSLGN

T12: Hof1, Q05080
T12 sequence (Q05080 590-669, looked up): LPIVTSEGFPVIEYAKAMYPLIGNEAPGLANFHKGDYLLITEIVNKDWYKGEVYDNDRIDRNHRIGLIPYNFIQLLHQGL

T13: Lsb3, P43603
T13 sequence (P43603 385-451, looked up): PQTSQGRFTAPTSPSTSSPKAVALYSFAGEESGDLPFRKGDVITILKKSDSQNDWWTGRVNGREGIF

T14: Lsb4, P32793
T14 sequence (P32793 402-468, looked up): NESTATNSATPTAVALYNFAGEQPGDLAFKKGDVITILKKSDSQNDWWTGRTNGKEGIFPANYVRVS

T15: Myo5, Q04439
T15 sequence (Q04439 1072-1160, looked up): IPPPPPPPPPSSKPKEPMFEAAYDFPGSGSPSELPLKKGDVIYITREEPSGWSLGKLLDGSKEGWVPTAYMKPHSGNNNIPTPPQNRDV

T16: Bbc1, P47068
T16 sequence (P47068 1-78, looked up): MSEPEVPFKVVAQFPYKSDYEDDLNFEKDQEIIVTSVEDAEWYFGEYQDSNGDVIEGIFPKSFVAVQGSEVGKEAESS

T17: Boi1, P38041
T17 sequence (P38041 1-86, looked up): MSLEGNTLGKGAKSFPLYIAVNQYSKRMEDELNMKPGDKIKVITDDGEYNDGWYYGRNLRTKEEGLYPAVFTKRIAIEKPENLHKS

T18: Bzz1-1, P38822
T18 sequence (P38822 478-572, looked up): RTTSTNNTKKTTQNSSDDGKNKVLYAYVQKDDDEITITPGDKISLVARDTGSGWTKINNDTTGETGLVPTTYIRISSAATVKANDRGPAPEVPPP

T19: Cyk3, Q07533
T19 sequence (Q07533 1-83, looked up): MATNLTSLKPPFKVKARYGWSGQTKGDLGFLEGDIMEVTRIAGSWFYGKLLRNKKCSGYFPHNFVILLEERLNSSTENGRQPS

T20: Bud14, P27637
T20 sequence (P27637 247-328, looked up): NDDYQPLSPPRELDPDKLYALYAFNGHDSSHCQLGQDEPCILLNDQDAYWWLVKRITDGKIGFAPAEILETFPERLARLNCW

T21: Bzz1-2, P38822
T21 sequence (P38822 568-633, looked up): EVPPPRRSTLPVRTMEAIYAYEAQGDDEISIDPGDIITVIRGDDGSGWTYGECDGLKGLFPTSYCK

B1: unnamed (peptide)
chain: LKPPIGRPPKFPKSP
B2: unnamed (peptide)
chain: GPPPPLPPPLFPSSS
B3: unnamed (peptide)
chain: PLQSKIPMLPSRRTM

What follows are binders tested against T1, Hse1, P38753 (assay: SPOT array). Details: median of control spots 1727.
B1 showed an SPOT intensity of 1. With B2 the SPOT intensity was 0. With B3 the SPOT intensity was 3.

The binders below were run against Sho1, P40073 (assay: SPOT array). Details: median of control spots 1148.
Sequence of Sho1, P40073 (P40073 287-367): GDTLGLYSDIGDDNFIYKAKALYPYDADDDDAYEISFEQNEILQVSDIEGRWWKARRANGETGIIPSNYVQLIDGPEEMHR
B1 was tested, and the SPOT intensity was 24. With B2 the SPOT intensity was 0. With B3 the SPOT intensity was 21.

Each binder was assayed against T2, Sla1-2, P32790 (assay: SPOT array). Details: median of control spots 712.
B1 showed an SPOT intensity of 0. With B2 the SPOT intensity was 0. B3 gave an SPOT intensity of 14.

Each binder was assayed against Rvs167, P39743 (assay: SPOT array). Details: median of control spots 2707.
Sequence of Rvs167, P39743 (P39743 419-482): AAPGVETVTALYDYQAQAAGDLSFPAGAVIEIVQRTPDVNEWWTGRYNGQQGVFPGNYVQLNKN
With B1 the SPOT intensity was 0. For B2, the SPOT intensity was 0. With B3 the SPOT intensity was 1570.

What follows are binders tested against T3, Boi2, P39969 (assay: SPOT array). Details: median of control spots 1161.
B1 showed an SPOT intensity of 0. Binder B2 has an SPOT intensity of 0. Binder B3 has an SPOT intensity of 0.

The binders below were run against T4, Cdc25, P04821 (assay: SPOT array). Details: median of control spots 969.
For B1, the SPOT intensity was 0. Binder B2 has an SPOT intensity of 0. In the case of B3, the SPOT intensity is reported as 0.

The binders below were run against T5, Sla1-3, P32790 (assay: SPOT array). Details: median of control spots 5475.
B1 gave an SPOT intensity of 0. Binder B2 has an SPOT intensity of 0. In the case of B3, the SPOT intensity is reported as 0.

What follows are binders tested against T6, Lsb1, P53281 (assay: SPOT array). Details: median of control spots 388.
B1 showed an SPOT intensity of 0. B2 was tested, and the SPOT intensity was 64. B3 showed an SPOT intensity of 396.

The binders below were run against T7, Pex13, P80667 (assay: SPOT array). Details: median of control spots 1341.
B1 showed an SPOT intensity of 4. B2 was tested, and the SPOT intensity was 725. Binder B3 has an SPOT intensity of 329.

The binders below were run against T8, Fus1, P11710 (assay: SPOT array). Details: median of control spots 1200.
Work on B1 yielded an SPOT intensity of 0. Work on B2 yielded an SPOT intensity of 0. B3 showed an SPOT intensity of 0.

What follows are binders tested against Myo3, P36006 (assay: SPOT array). Details: median of control spots 468.
With B1 the SPOT intensity was 397. Binder B2 has an SPOT intensity of 575. In the case of B3, the SPOT intensity is reported as 102.

Each binder was assayed against T9, Nbp2, Q12163 (assay: SPOT array). Details: median of control spots 357.
For B1, the SPOT intensity was 0. For B2, the SPOT intensity was 0. B3 showed an SPOT intensity of 12.

These binders were tested against T10, Pin3, Q06449 (assay: SPOT array). Details: median of control spots 2171.
B1 showed an SPOT intensity of 0. Work on B2 yielded an SPOT intensity of 0. Work on B3 yielded an SPOT intensity of 280.

The binders below were run against Bem1-2, P29366 (assay: SPOT array). Details: median of control spots 4347.
Sequence of Bem1-2, P29366 (P29366 139-227): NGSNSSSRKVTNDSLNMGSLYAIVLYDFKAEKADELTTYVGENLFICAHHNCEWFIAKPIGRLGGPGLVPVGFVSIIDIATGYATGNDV
B1 gave an SPOT intensity of 0. In the case of B2, the SPOT intensity is reported as 0. B3 was tested, and the SPOT intensity was 0.

What follows are binders tested against T11, Abp1, P15891 (assay: SPOT array). Details: median of control spots 935.
B1 gave an SPOT intensity of 133. Work on B2 yielded an SPOT intensity of 6. B3 was tested, and the SPOT intensity was 124.

Each binder was assayed against Bem1-1, P29366 (assay: SPOT array). Details: median of control spots 4282.
Sequence of Bem1-1, P29366 (P29366 55-141): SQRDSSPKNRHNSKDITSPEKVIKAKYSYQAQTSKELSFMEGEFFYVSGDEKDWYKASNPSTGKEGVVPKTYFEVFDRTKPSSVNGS
B1 gave an SPOT intensity of 0. B2 showed an SPOT intensity of 0. For B3, the SPOT intensity was 1.

These binders were tested against T12, Hof1, Q05080 (assay: SPOT array). Details: median of control spots 4086.
Binder B1 has an SPOT intensity of 0. Work on B2 yielded an SPOT intensity of 1690. In the case of B3, the SPOT intensity is reported as 186.

The binders below were run against T13, Lsb3, P43603 (assay: SPOT array). Details: median of control spots 406.
B1 showed an SPOT intensity of 3. For B2, the SPOT intensity was 0. B3 gave an SPOT intensity of 635.

What follows are binders tested against T14, Lsb4, P32793 (assay: SPOT array). Details: median of control spots 397.
B1 gave an SPOT intensity of 0. B2 showed an SPOT intensity of 10. Work on B3 yielded an SPOT intensity of 960.

These binders were tested against T15, Myo5, Q04439 (assay: SPOT array). Details: median of control spots 471.
B1 gave an SPOT intensity of 117. With B2 the SPOT intensity was 362. In the case of B3, the SPOT intensity is reported as 35.

The binders below were run against T16, Bbc1, P47068 (assay: SPOT array). Details: median of control spots 796.
In the case of B1, the SPOT intensity is reported as 18. Work on B2 yielded an SPOT intensity of 0. In the case of B3, the SPOT intensity is reported as 29.

The binders below were run against GST (assay: SPOT array). Details: median of control spots 978.
For B1, the SPOT intensity was 0. B2 gave an SPOT intensity of 0. Work on B3 yielded an SPOT intensity of 0.

These binders were tested against T17, Boi1, P38041 (assay: SPOT array). Details: median of control spots 1162.
For B1, the SPOT intensity was 3. Binder B2 has an SPOT intensity of 0. For B3, the SPOT intensity was 0.

The binders below were run against T18, Bzz1-1, P38822 (assay: SPOT array). Details: median of control spots 4446.
For B1, the SPOT intensity was 0. Work on B2 yielded an SPOT intensity of 0. B3 gave an SPOT intensity of 0.

Each binder was assayed against T19, Cyk3, Q07533 (assay: SPOT array). Details: median of control spots 1451.
For B1, the SPOT intensity was 0. In the case of B2, the SPOT intensity is reported as 0. B3 gave an SPOT intensity of 2.

The binders below were run against T20, Bud14, P27637 (assay: SPOT array). Details: median of control spots 956.
With B1 the SPOT intensity was 0. For B2, the SPOT intensity was 0. B3 was tested, and the SPOT intensity was 0.

What follows are binders tested against T21, Bzz1-2, P38822 (assay: SPOT array). Details: median of control spots 4538.
B1 was tested, and the SPOT intensity was 0. For B2, the SPOT intensity was 0. B3 showed an SPOT intensity of 0.
